Source: article PMC8154272, “Discovery of a New, Recurrent Enzyme in Bacterial Phosphonate Degradation: (R)-1-Hydroxy-2-aminoethylphosphonate Ammonia-lyase” (Biochemistry, 2021)

Experiments:
PhnX = PhnX (Vibrio splendidus, UniProt A0ABV4LR11); experiment: 1H NMR, disappearance of PAA; assay type: biochemical; conditions: PAA generated in situ by PhnW or PbfA; 50 mM potassium phosphate pH 8.0, 100 mM KCl, 5 mM MgCl2, 25 °C
NC[C@H](O)P(=O)(O)O = experiment: purified protein; conditions: TEA-HCl pH 8.0, 25 °C, 5 mM MgCl2, 5 μM PLP, 0.07% BSA, 1,2-elimination

Molecule	1H NMR, disappearance of PAA (PhnX)	Km (NC[C@H](O)P(=O)(O)O)	kcat (NC[C@H](O)P(=O)(O)O)
O=CCP(=O)(O)O [PAA]	Addition of PhnX (blue) led to disappearance of PAA		
PbfA (Vibrio splendidus 12B01)		430 ± 60 µM	5.3 ± 0.3 s^–1
